Experimental data reported in article PMC3877406, “Characterization of VCAM-1-Binding Peptide-Functionalized Quantum Dots for Molecular Imaging of Inflamed Endothelium” (PLoS ONE, 2013).
Side chains are listed from the residue outwards. Ends that are not written are not given here. amino‑PEG‑coated CdSeTe/ZnS quantum dot = amino-PEG-coated CdSeTe/ZnS quantum dot; sulfo‑SMCC = sulfosuccinimidyl-4-(N-maleimidomethyl)cyclohexane-1-carboxylate

Molecular target: T1, recombinant human VCAM-1 (human, UniProt P19320 25-698)
T1 construct: vascular cell adhesion molecule 1 (VCAM-1), human, recombinant; A bought recombinant VCAM-1 is likely the soluble extracellular part, perhaps with a tag or Fc; also called recombinant VCAM-1; vascular cell adhesion molecule 1; source: bought: R&D Systems
T1 sequence (looked up): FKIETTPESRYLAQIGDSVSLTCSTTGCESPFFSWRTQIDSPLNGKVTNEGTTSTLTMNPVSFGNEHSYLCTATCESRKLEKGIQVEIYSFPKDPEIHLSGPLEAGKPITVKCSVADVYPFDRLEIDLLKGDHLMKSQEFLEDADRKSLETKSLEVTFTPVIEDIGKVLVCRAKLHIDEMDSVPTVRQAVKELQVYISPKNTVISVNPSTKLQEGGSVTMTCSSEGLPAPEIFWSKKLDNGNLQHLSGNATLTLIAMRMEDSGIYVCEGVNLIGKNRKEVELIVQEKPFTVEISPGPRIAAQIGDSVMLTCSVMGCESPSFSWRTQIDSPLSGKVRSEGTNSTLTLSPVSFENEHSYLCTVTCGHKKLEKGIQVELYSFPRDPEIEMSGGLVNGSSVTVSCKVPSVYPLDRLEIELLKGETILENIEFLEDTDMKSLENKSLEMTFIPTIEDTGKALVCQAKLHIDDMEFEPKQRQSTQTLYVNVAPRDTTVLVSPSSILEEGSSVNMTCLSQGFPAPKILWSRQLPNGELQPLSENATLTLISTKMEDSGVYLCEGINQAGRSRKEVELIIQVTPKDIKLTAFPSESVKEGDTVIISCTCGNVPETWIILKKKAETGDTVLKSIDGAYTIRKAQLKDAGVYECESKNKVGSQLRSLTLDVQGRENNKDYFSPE
Test: blue-shift of the quantum dot fluorescence peak (spectra by confocal microscope); VQDs mixed with recombinant human VCAM-1 in tube in 10:1 and 1:1 molar ratios, 5 hours at room temperature; a drop dried on a slide; excitation 405 nm; blue-shift seen at 1:1, not at 10:1
Details: both partners purified

binding result: binds
B1: VCAM-1 binding peptide functionalized QDs (VQDs) (peptide)
peptide: VHPKQHRGGSKGC([sulfo‑SMCC-amino‑PEG‑coated CdSeTe/ZnS quantum dot])
notes: source: synthetic peptide (Innovagen, Sweden), conjugated to Qdot 705 ITK Amino (PEG) Quantum Dots (Invitrogen) with sulfo-SMCC
